Source: the supplement of paper PMC7125110
± gives the standard error. This sample holds only a part of the variants without activity.

B1: glmS ribozyme (parent)
chain: AUAAAAGCGCCAGAACUACAGAAAUGUAGUUGACGAGGAGGAGGUUUAUCGAAUUUUCGGCGGAUGCCUCCAAA

How the values were obtained:
Conditions in all cases: with glucosamine-6-phosphate
glucosamine-6-phosphate [1] = variants of: B1; test: self-cleavage kobs at 40 uM GlcN6P; higher = faster cleavage; RNA array
Summary of the method: (§1)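 kobs was derived by fitting per-tile medians to one- or two-exponential decays after normalising signals to baseline and to non-cleaving reference variants. Those signals came from barcoded ribozyme variants transcribed in situ by E. coli RNA polymerase on sequenced MiSeq chips, followed through a hybridised Cy3 probe at 37 °C and imaged over ~14 h. Glucosamine-6-phosphate (40 μM to 10 mM) in HEPES/KCl/Mg(OAc)2 buffer was flowed in. Weighted Michaelis–Menten fits across concentrations then gave kcat and KM.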

glucosamine-6-phosphate [2] = variants of: B1; test: self-cleavage kobs at 160 uM GlcN6P; higher = faster cleavage; RNA array
Summary of the method: as §1

glucosamine-6-phosphate [3] = variants of: B1; test: self-cleavage kobs at 640 uM GlcN6P; higher = faster cleavage; RNA array
Summary of the method: as §1

glucosamine-6-phosphate [4] = variants of: B1; test: self-cleavage kobs at 2500 uM GlcN6P; higher = faster cleavage; RNA array
Summary of the method: as §1

glucosamine-6-phosphate [5] = variants of: B1; test: self-cleavage kobs at 10000 uM GlcN6P; higher = faster cleavage; RNA array
Summary of the method: as §1

| Variant | self-cleavage kobs at 40 uM GlcN6P (glucosamine-6-phosphate [1]) [s⁻¹] | self-cleavage kobs at 160 uM GlcN6P (glucosamine-6-phosphate [2]) [s⁻¹] | self-cleavage kobs at 640 uM GlcN6P (glucosamine-6-phosphate [3]) [s⁻¹] | self-cleavage kobs at 2500 uM GlcN6P (glucosamine-6-phosphate [4]) [s⁻¹] | self-cleavage kobs at 10000 uM GlcN6P (glucosamine-6-phosphate [5]) [s⁻¹] |
| --- | --- | --- | --- | --- | --- |
| AUAAAAGGGCCAGAACUACAGAAAUGUAGUUGACGAGGAGGAGGUGUAUCGAAUUUUCGGCGGAUGCCUCCAAA [C8G U46G] | < 1e-05 | < 1e-05 | < 1e-05 | < 1e-05 | < 1e-05 |
| AUAAAAGGGCCAGAACUACAGAAAUGUACUUGACGAGGAGGAGGUUUAUCGAAUUUUCGGCGGGUGCCUCCAAA [C8G G29C A64G] | < 1e-05 |  |  |  |  |
| AUAAAAGGGCCAGAACUACAGAAAUGUAGUUGACGAGGAGGAGGUUUAUCUAAUUUUCGGCGGGUGCCUCCAAA [C8G G51U A64G] | < 1e-05 |  |  |  | < 1e-05 |
| AUAAAAGGGCCAUAACUACAGAAAUGUAGUUGACGAGGAGGAGGUUUAUCGAAUUUUCGGCGGAUGCCUCCAAA [C8G G13U] | < 1e-05 | < 1e-05 | < 1e-05 | < 1e-05 | < 1e-05 |
| AUAAAAGGGCCAGAACUACAGAAAUGUAGCUGACGAGGAGGAGGUUUAUCGAAUUUUCGGCGGAUGCCUCCAAA [C8G U30C] | < 1e-05 |  |  | < 1e-05 | < 1e-05 |
| AUAAAAGGGCCAGAACUACAGAAAUGUAGGUGACGAGGAGGAGGUUUAUCGAAUUUUCGACGGAUGCCUCCAAA [C8G U30G G60A] | < 1e-05 |  |  |  | < 1e-05 |
| AUAAAAGGGCCAGAACUACAGAAAUGUAGUUGACGAGGAGGAGGUUUAUCGAAUUUUCGGCGUAUGCCUCCAAA [C8G G63U] | < 1e-05 |  |  |  | < 1e-05 |
| AUAAAAGGGCCAGAACUACAGAAAUGUAGUUGACGAGGAGGAGGUUUAUCGAAUUUUCGGCGAAUGCCUCCAAA [C8G G63A] | < 1e-05 | < 1e-05 | < 1e-05 | < 1e-05 | < 1e-05 |
| AUAAAAGUGCCAGAAUUACAGAAAUGUAGUUGACGAGGAGGAGGUAUAUCGAAUUUUCGGCGAAUGCCUCCAAA [C8U C16U U46A G63A] | < 1e-05 |  |  |  | < 1e-05 |
| AUAAAAGGGCCAGAACUACAGAAAUGUAGUUGACGAGGAGGAGGUUUAUCGAAUUUUCCGCGGAUGCCUCCAAA [C8G G59C] | < 1e-05 |  | < 1e-05 |  | < 1e-05 |
| AUAAAAGGGCCAGAACUACAGAAAUGUAGUUGACGAGGAGGAGGUAUAUCGAAUUUUCGGCGGAUGCCUGCAAA [C8G U46A C70G] | < 1e-05 |  |  |  |  |
| AUAAAAGGGCCAGAACUACAGAAAUGUAGUUGACGAGGAGGAGGUUUAUCGAAUUGUCGGCGGAUGCCUUAAAA [C8G U56G C70U C71A] | < 1e-05 | < 1e-05 | < 1e-05 | < 1e-05 |  |
| AUAAAAGUGCCAGAACUACAGAAAUGUAGUUGACGAGGAGGAGGUUUAUCGUAUUUUUGGCGGCUGCCUUCAAA [C8U A52U C58U A64C C70U] | < 1e-05 | < 1e-05 |  | < 1e-05 |  |
| AUAAAAGUGCCAGAACUACAGAAAUGUAGUUGACGAGGAGGAGGUUUAUCGGAUUUUCGGCGUAUGCCUCCAAA [C8U A52G G63U] | < 1e-05 |  |  |  | < 1e-05 |
| AUAAAAGGGCCAGAACUACAGAAAUGUAGUCGACCAGGAGGAGGUUUAUCGAAUUUUCGGCGGAUGCCUCCAAA [C8G U31C G35C] | < 1e-05 |  |  |  | < 1e-05 |
| AUAAAAGGGCCAGAACUACAGAAAUGUAGUCGACGAGGGGGAGGUUUAUCGAAUUUUCGGCGGAUGCCUCCAAA [C8G U31C A39G] | < 1e-05 |  |  |  |  |
| AUAAAAGGGCCAGAAAUACAGAAAUGUAGUUGACGAGGAGGUGGUUUAUCGAAUUUUCGGCGGAAGCCUCCAAA [C8G C16A A42U U65A] | < 1e-05 |  |  |  | < 1e-05 |
| AUAAAAGUGGCAGAACUACAGAAAUGUAGUUGACGAGGAGGAGGUUUAUCGAAUUUUCGGCGGAUGCCUCCAAA [C8U C10G] | < 1e-05 |  | < 1e-05 |  | < 1e-05 |
| AUAAAAGUGCCAGAACUACAGAAAUGUAGUUGACGAGGAGGAGGUUUAUAAAAUUUUCGGCGGAUGCCGCCAAA [C8U C50A G51A U69G] | 0.00046 ± 0.00016 |  |  |  | 0.000709 ± 0.00014 |
| AUAAAAGGGCCAGAACUACAGAAAUGUAGUUGACGAGGAGUAGGUUUAUCGAAUUUUCGGCGGAUGCCUCUAAA [C8G G41U C71U] | < 1e-05 |  |  |  | < 1e-05 |
| AUAAAAGUGCCAGAACUACAGAAAUGUAGUUGACGAGGAGGAGGUUUAUCGACUUUUCGGCGGAUGCCUCCAAA [C8U A53C] | < 1e-05 | < 1e-05 | < 1e-05 | < 1e-05 | < 1e-05 |
| AUAAAAGUGCCAGGACUACAGAAAUGUAGUUGACGAAGUUGAGGUUAAUCGAAUUUUGGGCGGAGGCCUUCAAA [C8U A14G G37A A39U G40U U47A C58G U65G C70U] | < 1e-05 |  |  | < 1e-05 |  |
| AUAAAAGGGCCAGAACUACAGAAAUGUAGUUGACGAGGAGUAGGUUUAUCGAAUUUUCGGCGGAUGCCUCCAAA [C8G G41U] | < 1e-05 | < 1e-05 | < 1e-05 | < 1e-05 | < 1e-05 |
| AUAAAAGGGCCAGAACUACAGAAAUGUAGUUGACGAGGAGGAGGUUUAUCGAAUAUUCGGCGGAUGCCUCCAAA [C8G U55A] | < 1e-05 |  | < 1e-05 | < 1e-05 | < 1e-05 |
| AUAAAAGGGCCAGAACUACAGAAAUGUAGUUGACGAGGAGGAGGUUUAUCGAAUCUUCGGCGGAUGCCUCCAAA [C8G U55C] | < 1e-05 | < 1e-05 | < 1e-05 |  |  |
| AUAAAAGUGCCAGAACUACAGAAAUGUAGUUGACGAGGAGGAGGUUUCUCGAAUUUUCGGCGGAUGCCUCCAAA [C8U A48C] | < 1e-05 |  | < 1e-05 |  | < 1e-05 |
